# Measurements: patent US20260116921A1, “PEPTIDE INHIBITORS OF INTERLEUKIN-23 RECEPTOR AND THEIR USE TO TREAT INFLAMMATORY DISEASES” (priority 2018, published 2026)
# Numbered stars: 1 amine (or outer) side, 2 acyl side, 3 side chain; on linkers, the order of the positions; unused ones are H or OH. Bridge positions count the residues as written; N and C are the ends. Square brackets hold non-standard residues; d marks the D form. Trp(7-Et) = 7-ethyl-tryptophan, CCc1cccc2c(C[C@H](N[*:1])C(=O)[*:2])c[nH]c12; Trp(7-OMe) = COc1cccc2c(C[C@H](N)C(=O)O)c[nH]c12; His(π-Bom) = N[C@@H](Cc1cncn1COCc1ccccc1)C(=O)O; Trp(7-Me) = Cc1cccc2c(C[C@H](N)C(=O)O)c[nH]c12; 2Nal = N[C@@H](Cc1ccc2ccccc2c1)C(=O)O; AEF = NCCOc1ccc(C[C@H](N)C(=O)O)cc1; Cit = NC(=O)NCCC[C@H](N)C(=O)O; Pen = CC(C)(S)[C@H](N)C(=O)O; αMeK = C[C@](N)(CCCCN)C(=O)O; NMeA = CN[C@@H](C)C(=O)O; Aib = CC(C)(N)C(=O)O; βAla = NCCC(=O)O
# T1: IL-23R (human, UniProt Q5VWK5 24-629)
# T1 sequence (looked up): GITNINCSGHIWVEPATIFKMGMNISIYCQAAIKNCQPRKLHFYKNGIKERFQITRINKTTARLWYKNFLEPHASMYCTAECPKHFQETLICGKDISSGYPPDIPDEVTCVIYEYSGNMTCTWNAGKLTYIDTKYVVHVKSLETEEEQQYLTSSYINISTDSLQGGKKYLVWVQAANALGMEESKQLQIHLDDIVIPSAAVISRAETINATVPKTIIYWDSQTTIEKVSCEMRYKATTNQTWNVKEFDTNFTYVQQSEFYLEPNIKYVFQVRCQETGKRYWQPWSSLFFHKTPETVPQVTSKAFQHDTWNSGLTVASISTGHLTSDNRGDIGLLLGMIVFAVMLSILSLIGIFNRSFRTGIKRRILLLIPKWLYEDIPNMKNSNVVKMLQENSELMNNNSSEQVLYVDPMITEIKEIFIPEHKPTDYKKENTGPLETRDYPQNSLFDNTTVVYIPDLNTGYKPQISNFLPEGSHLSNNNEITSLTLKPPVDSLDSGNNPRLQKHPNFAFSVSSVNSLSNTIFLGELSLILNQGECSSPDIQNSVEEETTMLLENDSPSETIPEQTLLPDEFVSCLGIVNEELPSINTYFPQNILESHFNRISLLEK
# B1: SEQ ID NO: 276 (peptide)
# peptide: XNTXQXXXXKNX
# modifications: Ac-[Pen]-N-T-[W(7-Me)]-Q-[Pen]-Phe[4-(2-aminoethoxy)]-[2-Nal]-[DiethylGly]-[Lys(Ac)]-N-[bA]-NH2; Pen-Pen disulfide
# B2: SEQ ID NO: 345 (peptide)
# peptide: Ac-[Pen]NT[Trp(7-Me)][Cit][Pen][AEF][2Nal][αMeK]K(Ac)N[Aib][dR]-NH2
# modifications: disulfide 1-6
# SMILES: CC(=O)NCCCC[C@H](NC(=O)[C@](C)(CCCCN)NC(=O)[C@H](Cc1ccc2ccccc2c1)NC(=O)[C@H](Cc1ccc(OCCN)cc1)NC(=O)[C@H]1NC(=O)[C@H](CCCNC(N)=O)NC(=O)[C@H](Cc2c[nH]c3c(C)cccc23)NC(=O)[C@H]([C@@H](C)O)NC(=O)[C@H](CC(N)=O)NC(=O)[C@@H](NC(C)=O)C(C)(C)SSC1(C)C)C(=O)N[C@@H](CC(N)=O)C(=O)NC(C)(C)C(=O)N[C@H](CCCNC(=N)N)C(N)=O
# B3: SEQ ID NO: 319 (peptide)
# peptide: XNTXXXXXXKNL
# modifications: Ac-[Pen]-N-T-[W(7-Me)]-[Lys(trifluoropropionic)]-[Pen]-Phe[4-(2-aminoethoxy)]-[2-Nal]-[a-MeLys]-[Lys(Ac)]-N-[(D)Leu]-NH2; Pen-Pen disulfide
# B4: SEQ ID NO: 341 (peptide)
# peptide: Ac-[Pen]NT[Trp(7-Me)][Cit][Pen][AEF][2Nal][αMeK]K(Ac)N[Aib]G-NH2
# modifications: disulfide 1-6
# SMILES: CC(=O)NCCCC[C@H](NC(=O)[C@](C)(CCCCN)NC(=O)[C@H](Cc1ccc2ccccc2c1)NC(=O)[C@H](Cc1ccc(OCCN)cc1)NC(=O)[C@H]1NC(=O)[C@H](CCCNC(N)=O)NC(=O)[C@H](Cc2c[nH]c3c(C)cccc23)NC(=O)[C@H]([C@@H](C)O)NC(=O)[C@H](CC(N)=O)NC(=O)[C@@H](NC(C)=O)C(C)(C)SSC1(C)C)C(=O)N[C@@H](CC(N)=O)C(=O)NC(C)(C)C(=O)NCC(N)=O
# B5: SEQ ID NO: 320 (peptide)
# peptide: XNTXXXXXXKNL
# modifications: Ac-[Pen]-N-T-[W(7-Me)]-[Lys(Gly)]-[Pen]-Phe[4-(2-aminoethoxy)]-[2-Nal]-[a-MeLys]-[Lys(Ac)]-N-[(D)Leu]-NH2; Pen-Pen disulfide
# B6: SEQ ID NO: 346 (peptide)
# peptide: Ac-[Pen]NT[Trp(7-Me)][Cit][Pen][AEF][2Nal][αMeK]K(Ac)N[Aib][dF]-NH2
# modifications: disulfide 1-6
# SMILES: CC(=O)NCCCC[C@H](NC(=O)[C@](C)(CCCCN)NC(=O)[C@H](Cc1ccc2ccccc2c1)NC(=O)[C@H](Cc1ccc(OCCN)cc1)NC(=O)[C@H]1NC(=O)[C@H](CCCNC(N)=O)NC(=O)[C@H](Cc2c[nH]c3c(C)cccc23)NC(=O)[C@H]([C@@H](C)O)NC(=O)[C@H](CC(N)=O)NC(=O)[C@@H](NC(C)=O)C(C)(C)SSC1(C)C)C(=O)N[C@@H](CC(N)=O)C(=O)NC(C)(C)C(=O)N[C@H](Cc1ccccc1)C(N)=O
# B7: SEQ ID NO: 265 (peptide)
# peptide: Ac-[Pen]NT[Trp(7-Me)][Cit][Pen][AEF][2Nal][αMeK]K(Ac)N[NMeA]-NH2
# modifications: disulfide 1-6; not fully specified; printed as Ac-[Pen]-NT-[W(7-Me)]-[Cit]-[Pen]-Phe[4-(2-aminoethoxy)]-[2-Nal]-[a-MeLys]-[Lys(Ac)]-[N-MeAla]-NH2
# B8: SEQ ID NO: 277 (peptide)
# peptide: XNTXQXXXXKNX
# modifications: Ac-[Pen]-N-T-[W(7-Me)]-Q-[Pen]-Phe[4-(2-aminoethoxy)]-[2-Nal]-[Acbc]-[Lys(Ac)]-N-[bA]-NH2; Pen-Pen disulfide
# B9: SEQ ID NO: 274 (peptide)
# peptide: XNTXQXXXXKNX
# modifications: Ac-[Pen]-N-T-[W(7-Me)]-Q-[Pen]-Phe[4-(2-aminoethoxy)]-[2-Nal]-[Achc]-[Lys(Ac)]-N-[bA]-NH2; Pen-Pen disulfide
# B10: SEQ ID NO: 300 (peptide)
# peptide: Ac-[Pen]NT[Trp(7-OMe)][Cit][Pen][AEF][2Nal][αMeK]K(Ac)N[dK]-NH2
# modifications: disulfide 1-6
# SMILES: COc1cccc2c(C[C@@H]3NC(=O)[C@H]([C@@H](C)O)NC(=O)[C@H](CC(N)=O)NC(=O)[C@@H](NC(C)=O)C(C)(C)SSC(C)(C)[C@@H](C(=O)N[C@@H](Cc4ccc(OCCN)cc4)C(=O)N[C@@H](Cc4ccc5ccccc5c4)C(=O)N[C@@](C)(CCCCN)C(=O)N[C@@H](CCCCNC(C)=O)C(=O)N[C@@H](CC(N)=O)C(=O)N[C@H](CCCCN)C(N)=O)NC(=O)[C@H](CCCNC(N)=O)NC3=O)c[nH]c12
# B11: SEQ ID NO: 211 (peptide)
# peptide: XNTXQXXXXKPX
# modifications: Ac-[Pen]-NT-[W(7-Me)]-Q-[Pen]-Phe[4-(2-aminoethoxy)]-[2-Nal]-[a-MeLeu]-[Lys(Ac)]-P-[bA]-NH2; Pen-Pen disulfide
# B12: SEQ ID NO: 322 (peptide)
# peptide: XNTXXXXXXKNL
# modifications: Ac-[Pen]-N-T-[W(7-Me)]-[Lys(Aib)]-[Pen]-Phe[4-(2-aminoethoxy)]-[2-Nal]-[a-MeLys]-[Lys(Ac)]-N-[(D)Leu]-NH2; Pen-Pen disulfide
# B13: SEQ ID NO: 340 (peptide)
# peptide: Ac-[Pen]NT[Trp(7-Me)][Cit][Pen][AEF][2Nal][αMeK]K(Ac)N[Aib][βAla]-NH2
# modifications: disulfide 1-6
# SMILES: CC(=O)NCCCC[C@H](NC(=O)[C@](C)(CCCCN)NC(=O)[C@H](Cc1ccc2ccccc2c1)NC(=O)[C@H](Cc1ccc(OCCN)cc1)NC(=O)[C@H]1NC(=O)[C@H](CCCNC(N)=O)NC(=O)[C@H](Cc2c[nH]c3c(C)cccc23)NC(=O)[C@H]([C@@H](C)O)NC(=O)[C@H](CC(N)=O)NC(=O)[C@@H](NC(C)=O)C(C)(C)SSC1(C)C)C(=O)N[C@@H](CC(N)=O)C(=O)NC(C)(C)C(=O)NCCC(N)=O
# B14: SEQ ID NO: 344 (peptide)
# peptide: Ac-[Pen]NT[Trp(7-Me)][Cit][Pen][AEF][2Nal][αMeK]K(Ac)N[Aib][dK]-NH2
# modifications: disulfide 1-6
# SMILES: CC(=O)NCCCC[C@H](NC(=O)[C@](C)(CCCCN)NC(=O)[C@H](Cc1ccc2ccccc2c1)NC(=O)[C@H](Cc1ccc(OCCN)cc1)NC(=O)[C@H]1NC(=O)[C@H](CCCNC(N)=O)NC(=O)[C@H](Cc2c[nH]c3c(C)cccc23)NC(=O)[C@H]([C@@H](C)O)NC(=O)[C@H](CC(N)=O)NC(=O)[C@@H](NC(C)=O)C(C)(C)SSC1(C)C)C(=O)N[C@@H](CC(N)=O)C(=O)NC(C)(C)C(=O)N[C@H](CCCCN)C(N)=O
# B15: SEQ ID NO: 220 (peptide)
# peptide: XNTXQXXXXGPX
# modifications: Ac-[Pen]-NT-[W(7-Me)]-Q-[Pen]-Phe[4-(2-aminoethoxy)]-[2-Nal]-[a-MeLeu]-G-[(D)Pro]-[bA]-NH2; Pen-Pen disulfide
# B16: SEQ ID NO: 249 (peptide)
# peptide: XNTXKXXXXKNX
# modifications: Ac-[Pen]-NT-[W(7-Me)]-[Lys(Ac)]-[Pen]-Phe[4-(2-aminoethoxy)]-[2-Nal]-[a-MeLys]-[Lys(Ac)]-N-[Cit]-NH2; Pen-Pen disulfide
# B17: SEQ ID NO: 224 (peptide)
# peptide: XNTXQXXXXKXX
# modifications: Ac-[Pen]-NT-[W(7-Me)]-Q-[Pen]-Phe[4-(2-aminoethoxy)]-[2-Nal]-[a-MeLeu]-[Lys(Ac)]-[Sarc]-[bA]-NH2; Pen-Pen disulfide
# B18: SEQ ID NO: 342 (peptide)
# peptide: Ac-[Pen]NT[Trp(7-Me)][Cit][Pen][AEF][2Nal][αMeK]K(Ac)N[Aib]A-NH2
# modifications: disulfide 1-6
# SMILES: CC(=O)NCCCC[C@H](NC(=O)[C@](C)(CCCCN)NC(=O)[C@H](Cc1ccc2ccccc2c1)NC(=O)[C@H](Cc1ccc(OCCN)cc1)NC(=O)[C@H]1NC(=O)[C@H](CCCNC(N)=O)NC(=O)[C@H](Cc2c[nH]c3c(C)cccc23)NC(=O)[C@H]([C@@H](C)O)NC(=O)[C@H](CC(N)=O)NC(=O)[C@@H](NC(C)=O)C(C)(C)SSC1(C)C)C(=O)N[C@@H](CC(N)=O)C(=O)NC(C)(C)C(=O)N[C@@H](C)C(N)=O
# B19: SEQ ID NO: 347 (peptide)
# peptide: Ac-[Pen]NT[Trp(7-Me)][Cit][Pen][AEF][2Nal][αMeK]K(Ac)N[Aib][dY]-NH2
# modifications: disulfide 1-6
# SMILES: CC(=O)NCCCC[C@H](NC(=O)[C@](C)(CCCCN)NC(=O)[C@H](Cc1ccc2ccccc2c1)NC(=O)[C@H](Cc1ccc(OCCN)cc1)NC(=O)[C@H]1NC(=O)[C@H](CCCNC(N)=O)NC(=O)[C@H](Cc2c[nH]c3c(C)cccc23)NC(=O)[C@H]([C@@H](C)O)NC(=O)[C@H](CC(N)=O)NC(=O)[C@@H](NC(C)=O)C(C)(C)SSC1(C)C)C(=O)N[C@@H](CC(N)=O)C(=O)NC(C)(C)C(=O)N[C@H](Cc1ccc(O)cc1)C(N)=O
# B20: SEQ ID NO: 202 (peptide)
# peptide: XNTXQXXXXKNX
# modifications: Ac-[Pen]-NT-[W(7-Me)]-Q-[Pen]-Phe[4-(2-aminoethoxy)]-[2-Nal]-[a-MeLys]-[Lys(Ac)]-N-[bA]-NH2; Pen-Pen disulfide
# B21: SEQ ID NO: 203 (peptide)
# peptide: RXQTXQCXXXENX
# modifications: Ac-[(D)Arg]-Abu-Q-T-[W(7-Me)]-Q-C-Phe[4-(2-aminoethoxy)]-[2-Nal]-[THP]-E-N-[bA]-NH2; Abu-Cys thioether
# Target: T1, IL-23R
# Assay: cell-based or functional assay
row,Binder,pStat3 HTRF (nM) IC50 [nM]
1,B1,< 1
2,Ac-[Pen]NT[Trp(7-Me)][Cit][Pen][AEF][2Nal][αMeK]K(Ac)NS-NH2 (disulfide 1-6 (inferred)) [SEQ ID NO: 260],< 1
3,B2,< 1
4,B3,< 1
5,B4,< 1
6,B5,< 1
7,B6,< 1
8,B7,< 1
9,Ac-[Pen]NT[Trp(7-Me)]K(Ac)[Pen][His(π-Bom)][2Nal][αMeK]K(Ac)N[dL]-NH2 (disulfide 1-6) [SEQ ID NO: 291],> 100
10,Ac-[Pen]NT[Trp(7-Et)]K(Ac)[Pen][AEF][2Nal][αMeK]K(Ac)N[dL]-NH2 (disulfide 1-6 (inferred)) [SEQ ID NO: 284],< 1
11,B8,< 1
12,B9,< 1
13,B10,> 100
14,B11,> 100
15,"Ac-[Pen]NT[Trp(2,5,7-tritBu)]Q[Pen][AEF][2Nal][αMeK]K(Ac)N[βAla]-NH2 (disulfide 1-6) [SEQ ID NO: 233]",> 100
16,B12,< 1
17,B13,< 1
18,B14,< 1
19,B15,> 100
20,Ac-[Pen]NT[Trp(7-Me)][Cit][Pen][AEF][2Nal][αMeK]K(Ac)N[dT]-NH2 (disulfide 1-6 (inferred)) [SEQ ID NO: 263],< 1
21,B16,< 1
22,B17,> 100
23,B18,< 1
24,Ac-[Pen]NT[Trp(7-Me)][Cit][Pen][AEF][2Nal][αMeK]K(Ac)N[dR]-NH2 (disulfide 1-6 (inferred)) [SEQ ID NO: 256],< 1
25,B19,< 1

# Target: T1, IL-23R
# Assay: cell-based or functional assay
# Remark: another data set of the same source
row,Binder,NK Cell Assay (nM) IC50 [nM]
1,B20,< 10
2,B21,< 10
